Reference: patent EP4647443A1 (Max-Planck-Gesellschaft zur Förderung der Wissenschaften …, dated 2025)

T1: S. aureus gamma-hemolysin component C (HlgC) (Staphylococcus aureus, UniProt Q07227 30-315)
T1 sequence: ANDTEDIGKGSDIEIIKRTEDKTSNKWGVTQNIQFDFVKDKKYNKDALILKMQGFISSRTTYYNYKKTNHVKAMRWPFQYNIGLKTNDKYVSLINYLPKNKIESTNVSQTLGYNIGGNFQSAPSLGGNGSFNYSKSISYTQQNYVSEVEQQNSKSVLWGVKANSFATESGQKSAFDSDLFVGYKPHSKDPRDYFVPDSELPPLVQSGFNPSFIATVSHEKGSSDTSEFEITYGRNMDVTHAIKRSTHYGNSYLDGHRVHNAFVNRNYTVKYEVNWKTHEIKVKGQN

T2: S. aureus gamma-hemolysin component B (HlgB) (Staphylococcus aureus, UniProt P0A075 27-325)
T2 sequence: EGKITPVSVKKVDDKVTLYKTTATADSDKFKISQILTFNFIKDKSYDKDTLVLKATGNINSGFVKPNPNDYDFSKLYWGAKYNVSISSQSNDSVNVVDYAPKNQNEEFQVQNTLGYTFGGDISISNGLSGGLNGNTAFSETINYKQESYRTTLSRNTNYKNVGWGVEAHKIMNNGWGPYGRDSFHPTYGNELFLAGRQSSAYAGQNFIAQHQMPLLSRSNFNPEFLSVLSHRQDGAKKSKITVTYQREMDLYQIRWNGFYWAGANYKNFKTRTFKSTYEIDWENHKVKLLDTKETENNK

T3: S. aureus gamma-hemolysin component A (HlgA) (Staphylococcus aureus, UniProt P0A071 30-309)
T3 sequence: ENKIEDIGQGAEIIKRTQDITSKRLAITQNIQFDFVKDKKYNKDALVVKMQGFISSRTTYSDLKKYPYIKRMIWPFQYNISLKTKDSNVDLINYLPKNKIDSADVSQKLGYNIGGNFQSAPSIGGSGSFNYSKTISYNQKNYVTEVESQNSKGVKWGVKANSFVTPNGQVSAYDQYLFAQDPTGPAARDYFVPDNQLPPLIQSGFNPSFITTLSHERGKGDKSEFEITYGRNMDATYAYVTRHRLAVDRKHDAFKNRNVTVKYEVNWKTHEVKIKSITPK


Experiments:
[1] = target: T1, S. aureus gamma-hemolysin component C …; assay: BLI, biotinylated VHH on streptavidin sensor, HlgC in solution
[2] = target: T2, S. aureus gamma-hemolysin component B …; assay: BLI, biotinylated VHH on streptavidin sensor, HlgB in solution
[3] = target: T3, S. aureus gamma-hemolysin component A …; assay: BLI, biotinylated VHH on streptavidin sensor, HlgA in solution

Binder | Kd [2] | Kd [3] | also measured
Bm32B07 (VHH) VHH: QVQLVESGGGLVQTGGSLRLSCATSGRISSIYAMPWFRQAPGKEREFVAAISWHTDLAYYADSVKGRFTISKDNAKNTVYLQMNSLKPEDTAVYYCNIPSKEEYDRNYYYPTGGSWGQGTQVTVSS | – | – | Kd [1]: 0.045 nM
Bm32A03 (VHH) VHH: QVQLVESGGALVQTGGSLRLSCVTSGSISSIYAMPWFRQAPGKEREFVAAISWHTNLAYYADSVKGRFTISKDNAKNTVYLQMDSLKPEDTATYYCNVPSKEEYDRTSYYPTGGSWGQGTQVTVSS | – | – | Kd [1]: 0.025 nM
Bm32D01 (VHH) VHH: QVQLVESGGGLVQTGGSLRLSCATSGRISSIYAMPWFRQAPGKEREFVAAISWHTDLTYYADSVKDRFTISKDNAKATVYLQMNNLQPEDTAVYYCNVPSKEQYDRTSYYPTGGSWGQGTQVTVSS | – | – | Kd [1]: 0.03 nM
Bm29E06 (VHH) VHH: QVQLVESGGGLVQPGGSLRLSCTASGVSLYDFAVGWFRQAPGKEREGVSCSSSRDRSEYYRDSVKGRFDIVRDNLKNIIYLQMDNLTIEDTAVYFCAADSQPYPCSLGSLERYDSWGQGTQVTVSS | 0.03 nM | – | –
Bm29F05 (VHH) VHH: QVQLVESGGGLVQPGGSLRLSCTASGVSLYDFAVGWWRQAPGKEREGVSCTSSRDRSEYYRDSVKGRFTIVRDNLKNTIYLQMDSLTIEDTAVYFCAADSQPYPCSLGSLERYDSWGQGIQVTVSS | 0.02 nM | – | –
Bm29H04 (VHH) VHH: QVQLVESGGGLVQPGGSLRLSCTASGVSLDDFAIGWFRQAPGKEREGVSCSSSRDRSEYYRDSVKGRFTISRDSQKNTVDLQMNSLTIEDTAVYYCAADPQPYPCSVGSLDRYNSWGQGTLVTVSS | 0.06 nM | – | –
Bm31G04 (VHH) VHH: QVQLVESGGGLVQPGGSLRLSCAASGITFTFYDMGWYRQAPGKQRELVATISISSSTTYADSVKGRFTISRDNAKNTVYLQMNSLKPEDTAVYYCNAQHVDSDYLAGYDYFGQGTQVTVSS | – | 0.025 nM | –
Bm31D04 (VHH) VHH: QVQLVESGGGLVQPGGSLRLSCAASGIIFDFYDMGWYRQAPGKQRELVAGISISGSTTYADSVKGRFTISRDNAKNTIYLQMNSLKPEDTAVYYCNAHHVDSDYLRGYDYFGQGTQVTVSS | – | 0.05 nM | –
Bm31G03 (VHH) VHH: QVQLVESGGGLVQAGGSLRLSCAASGIIFSFYDMGWYRQAPGKQREVVATISISGRTTYADSVKGRFTISRDDAKNTVYLQMNSLKPEDTAVYICNAQHVDSDYLAGYDYFGQGTQVTVSS | – | 0.015 nM | –
Bm31B04 (VHH) VHH: QVQLVESGGGLVQPGGSLRLSCAASGSSFSIYGMSWYRQAPGNQRELVALINVGDWTTYADSVKGRFTISRDSAKNTVYLQMNSLKPEDTAVYYCKADLSVSGSSFIRTYWGQGTQVTVSS | – | ≤ 0.01 nM | –
Bm31A09 (VHH) VHH: QVQLVQSGGGLVQAGGSLRLSCAASGSTGSIYVMGWFRQAPGKQRELVASITRGEGSANYADSVKGRFTISRDNAKNTLYLQMNSLKPEDTAVYYCHADTGLGDYSDYAPHGYKYDYWGQGTQVTVSS | – | 0.05 nM | –
Bm31D02 (VHH) VHH: QVQLVESGGGLVQAGGSLRLSCAASGSTGSIYVMGWFRQAPGKQRELVASITRGEGSANYADSVKGRFTISRDNAKNTLYLQMNSLKPEDTAVYYCHADTGLGDYSDYAPHGYKYDYWGQGTQVTVSS | – | 0.07 nM | –
Bm29B04 (VHH) VHH: QVQLVESGGGLVQAGGSLRLSCAASGFTFDDYVIGWFRQAPGKEREAVACISNGDGVANVPNSMKGRFTISSDSAKNTVHLRADSLKADDTGVYYCAAVKERLCVHEGMEYWGKGTQVTVSS | ≤ 0.01 nM | – | –
Bm29B05 (VHH) VHH: QVQLVESGGGLVQAGGSLRLSCAASGFTFDDYVIGWFRQAPGKEREAVACISNGDGVTNYPNSMRGRFTISSDSAKNTVYLQTDSLKPDDTGVYYCATAKERLCVQGGMEYWGKGTLVTVSS | ≤ 0.01 nM | – | –
Bm29D07 (VHH) VHH: QVQLVESGGGLVQPGGSLRLSCTASSIIVSYYAIGWFRQAPGKGREGVSRITVPAGNLYYADSVKGRFSITRDDVKNTVYLQMNSFQVEDTATYYCAVSYGDSWVDPSYVDHWGQGIQVTVSS | ≤ 0.01 nM | – | –
Bm31A08 (VHH) VHH: QVQLVESGGGLAQPGGSLTLSCAASGVVWSKYVMSWVRQVPEKGFEWVSGIKSDGSDTYYADSVKGRFTVSGDLAKKTVYLQLNSLKPEDTALYYCVLEYGTSWPPRVEEYDYWGQGTQVTVSS | – | ≤ 0.01 nM | –
Bm31A04 (VHH) VHH: QVQLVQSGGGLVQPGGSLRLSCAASESISNIYVMGWFRQAPGKQRELVAAITSSNNTNYADSVKGRFTISRDNAKNTVYLQMNSLKPEDTAVYYCNADWGLGGYSDYGEYDYWGQGTQVTVSS | – | 0.06 nM | –
Bm31F09 (VHH) VHH: QVQLVESGGALVQPGGSLRLSCAASGFTFDDYVMSWVRQAPGTGLEWVSSIHTASSDTYYADSVKDRFTISTDNAKNTLYLQMNSLKPEDTAVYYCAADKAPLTIATMTRDEYDYWGQGTQVTVSS | – | 0.09 nM | –
Bm31G12 (VHH) VHH: QVQLVESGGGLVQPGGSLRLSCAAAGFTVDDYVMSWVRQVPGKGREWVSSIHSYSSDTYYADSVKGRFTISTDNAKNTLYLQMNSLKPEDTAVYYCAADKDPLTIATMTRYEYDYWGQGTQVTVSS | – | 0.025 nM | –
Bm32A08 (VHH) VHH: QVQLVESGGGLVQAGGSLRVSCAASGDWFIINSMAWFRQAPGKQREQVATISHGGIPRYADSVKGRFTISRDNSKGAVYLQMNNLKSDDTAMYVCAAGGLDYGFPDPTPEEFDYWGRGTQVTVSS | – | – | Kd [1]: 0.045 nM
Bm32F03 (VHH) VHH: QVQLVESGGGLVQAGGSLRVSCAASGDWFIINSMAWFRQAPGKQREQVATISHGGIPRYADSVKGRFTISRDDSKDAVYLQMNNLKSDDTAMYVCAAGGLDYGFPDPTPEEFDYWGRGTQVTVSS | – | – | Kd [1]: 0.85 nM
Bm29C02 (VHH, also called anti-HlgB VHH Bm29C02) VHH: QVQLVESGGGLVQPGGSLRLSCTASGFTLDDWAIGWFRQAPGKEREGVSCTSSRERSSYYRDSVKGRFTISRDSTSNTVYLQMNELTLEDTAVYYCAADPQPYPCSLGQLGRYTTWGQGTQVTVSS | 0.01 nM | – | –
